{"source": "patent US20060264369", "about": "“Aptamers to von Willebrand Factor and their use as thrombotic disease therapeutics” (published 2006)", "binders": {"B1": {"name": "AMX238.E7 (ssDNA)", "DNA": "CTACCTACGATCTGACTAGCGTGCAGTGCCTATTTTAGGCCGTGCGGTGCCTCCGTCACGCTTACTCTCATGTAGTTCC"}, "B2": {"name": "AMX238.F3 (ssDNA)", "DNA": "CTACCTACGATCTGACTAGCGTGCAGTGCCTATTTTAGGTCGTGCGGGGCCTCCGTCACGCTTACTCTCATGTAGTTCC"}, "B3": {"name": "AMX238.F2 (ssDNA)", "DNA": "CTACCTACGATCTGACTAGCATGCAGTGCCCATTCTAGGCCGTGCGGTGCCTCCGTCATGCTTACTCTCATGTAGTTCC"}, "B4": {"name": "AMX237.C11 (ssDNA)", "DNA": "CTACCTACGATCTGACTAGCGTGCAGTGCCTATTCTAGGCCGTGCGGTGCCTCCGTCATGCTTACTCTCATGTAGTTCC"}, "B5": {"name": "AMX238.G4 (ssDNA)", "DNA": "CTACCTACGATCTGACTAGCTTGTCGCACTTTTGGTTGGTCTGGTTGGTTCTAAGTGCGCTTACTCTCATGTAGTTCC"}, "B6": {"name": "AMX237.C4 (ssDNA)", "DNA": "CTACCTACGATCTGACTAGCTTTCAGTCTTCCACATTTATAGGGTTTGGCATTGGGTCTGGCTTACTCTCATGTAGTTCC"}, "B7": {"name": "AMX238.H11 (ssDNA)", "DNA": "CTACCTACGATCTGACTAGCTTTCAGTCTTTCACATTTATAGGGTTTGGCATTGGGTCTGGCTTACTCTCATGTAGTTCC"}, "B8": {"name": "AMX237.E5 (ssDNA)", "DNA": "CTACCTACGATCTGACTAGCTTTCAGTCTTCTACATTTATAGGGTTTGGCATTGGGTCTGGCTTACTCTCATGTAGTTCC"}, "B9": {"name": "AMX237.G2 (ssDNA)", "DNA": "CTACCTACGATCTGACTAGCTTTCAGTCTTTCATATTTATAGGGTTTGGCATTGGGTCTGGCTTACTCTCATGTAGTTCC"}, "B10": {"name": "AMX237.F5 (ssDNA)", "DNA": "CTACCTACGATCTGACTAGCTTTTAGTCTTCCACATTTATAGGGTTTGGCATTGGGTCTGGCTTACTCTCATGTAGTTCC"}, "B11": {"name": "AMX237.F1 (ssDNA)", "DNA": "CTACCTACGATCTGACTAGCTTTCAGTCTTCCACGTTTATAGGGTTTGGCATTGGGTCTGGCTTACTCTCATGTAGTTCC"}, "B12": {"name": "AMX237.E9 (ssDNA)", "DNA": "CTACCTACGATCTGACTAGCTCCAGTGTTTTGTCTAATAACCGTGCGGTGCCTCCGTGAGCTTACTCTCATGTAGTTCC"}, "B13": {"name": "AMX237.B11 (ssDNA)", "DNA": "CTACCTACGATCTGACTAGCTCCAGTGTTTTATCTAATAACCGTGCGGTGCCTCCGTGAGCTTACTCTCATGTAGTTCC"}, "B14": {"name": "AMX238.D8 (ssDNA)", "DNA": "CTACCTACGATCTGACTAGCTCCAGTGTTTTATCCAACAACCGTGCGGTGCCTCCGTGAGCTTACTCTCATGTAGTTCC"}, "B15": {"name": "AMX238.G5 (ssDNA)", "DNA": "CTACCTACGATCTGACTAGCTCCAGTGTTTTATTCAATAACCGTGCGGTGCCTCCGTGAGCTTACTCTCATGTAGTTCC"}, "B16": {"name": "AMX238.D5 (ssDNA)", "DNA": "CTACCTACGATCTGACTAGCTCCAGTGTTTTATTCAATAACCGTGCGGTGTCTCCGTGAGCTTACTCTCATGTAGTTCC"}, "B17": {"name": "AMX237.F9 (ssDNA)", "DNA": "CTACCTACGATCTGACTAGCTTGGTAGCGATTCTGTGGAGCTGCGGTTTGGTCGACGTCAGCTTACTCTCATGTAGTTCC"}, "B18": {"name": "AMX237.G7 (ssDNA)", "DNA": "CTACCTACGATCTGACTAGCTTGGTAGCGACTTTGTGGAGCTGCGGTTTGGTCGACGTCAGCTTACTCTCATGTAGTTCC"}, "B19": {"name": "AMX236.C12 (ssDNA)", "DNA": "CTACCTACGATCTGACTAGCTTGGTAGCGACTCCGTGGAGCTGCGGTTTGGTCGACGTCAGCTTACTCTCATGTAGTTCC"}, "B20": {"name": "AMX237.B1 (ssDNA)", "DNA": "CTACCTACGATCTGACTAGCTTGGTAGCGACACAGTGGAGCTGCGGTTTGGTCGACGTCAGCTTACTCTCATGTAGTTCC"}, "B21": {"name": "AMX237.C9 (ssDNA)", "DNA": "CTACCTACGATCTGACTAGCTTGGTAGTGACTTTGTGGAGCTGCGGTTTGGTCGACGTCAGCTTACTCTCATGTAGTTCC"}, "B22": {"name": "AMX237.D5 (ssDNA)", "DNA": "CTACCTACGATCTGACTAGCTTGGTAGCGACACTGTGGAGCTGCGGTTTGGTTGACGTCAGCTTACTCTCATGTAGTTCC"}, "B23": {"name": "AMX236.A12 (ssDNA)", "DNA": "CTACCTACGATCTGACTAGCTTGGTAGCGACTCTGTGGAGCTGCGGTTTGGTCGACGTCAGCTTACTCTCATGTAGTTCC"}, "B24": {"name": "AMX236.A11 (ssDNA)", "DNA": "CTACCTACGATCTGACTAGCTTGGTAGCGACTCTGTGGAGCTGCGGTCTGGCCGACGTCAGCTTACTCTCATGTAGTTCC"}, "B25": {"name": "AMX236.G4 (ssDNA)", "DNA": "CTACCTACGATCTGACTAGCTTGGTAGCGACTTTGTGGAGATGCGGTTTGGTTGACGTCAGCTTACTCTCATGTAGTTCC"}, "B26": {"name": "AMX237.H10 (ssDNA)", "DNA": "CTACCTACGATCTGACTAGCTTGGTAGCGACTCAGAGGAGCTGCGGTTTGGTCGACGTCAGCTTACTCTCATGTAGTTCC"}, "B27": {"name": "AMX237.F12 (ssDNA)", "DNA": "CTACCTACGATCTGACTAGCTTGGTAGCGATTTTGTGGAGCTGCGGTTTGGTCGACGTCAGCTTACTCTCATGTAGTTCC"}, "B28": {"name": "AMX236.B8 (ssDNA)", "DNA": "CTACCTACGATCTGACTAGCTTGGTAGCGACTCTGTGGAGCTGCGGTCTGGTCGACGTCAGCTTACTCTCATGTAGTTCC"}, "B29": {"name": "AMX237.F10 (ssDNA)", "DNA": "CTACCTACGATCTGACTAGCGTGCAGTGCCCATTCCAGGCCGTGCGGTATCCTCCGTCACGCTTACTCTCATGTAGTTCC"}, "B30": {"name": "AMX237.C5 (ssDNA)", "DNA": "CTACCTACGATCTGACTAGCGTGCAGTGCCTATCTCAGGCCGTGCGGTATCCTCCGTCACGCTTACTCTCATGTAGTTCC"}, "B31": {"name": "AMX236.H2 (ssDNA)", "DNA": "CTACCTACGATCTGACTAGCGTGCAGTGCCTATCCCAGGCCGTGCGGTAGCCTCCGTCACGCTTACTCTCATGTAGTTCC"}}, "target": "von Willebrand factor full length (Homo sapiens, UniProt P04275 SEQ:764-2813)", "assay": "filter; 20 nM protein", "conditions": "tags: Calbiochem 681300", "experimental": "When a significant positive ratio of binding of DNA in the presence of human or rabbit vWF A1 domain versus in the absence of protein was seen, the pools were cloned using the TOPO TA cloning kit (Invitrogen Cat.# 45-0641, Carlsbad, Calif.) according to the manufacturer's instructions. […] All unique clones were assayed twice in a 3-point dot blot screen (no protein target control, 20 nM full length human vWF (Calbiochem Cat.# 681300, La Jolla, Calif.), or 20 nM rabbit vWF A1 domain. The data is presented in the third and fourth columns of Table 17 below as the ratio of the fraction of the aptamer bound to the nitrocellulose in the presence of the target protein to the fraction of aptamer bound in the absence of the target protein.", "data": [{"binder": "B1", "values": [{"measurement": "binding signal", "value": "3.02 ratio to no protein"}]}, {"binder": "B2", "values": [{"measurement": "binding signal", "value": "2.83 ratio to no protein"}]}, {"binder": "B3", "values": [{"measurement": "binding signal", "value": "2.84 ratio to no protein"}]}, {"binder": "B4", "values": [{"measurement": "binding signal", "value": "2.04 ratio to no protein"}]}, {"binder": "B5", "values": [{"measurement": "binding signal", "value": "1.09 ratio to no protein"}]}, {"binder": "B6", "values": [{"measurement": "binding signal", "value": "0.97 ratio to no protein"}]}, {"binder": "B7", "values": [{"measurement": "binding signal", "value": "0.98 ratio to no protein"}]}, {"binder": "B8", "values": [{"measurement": "binding signal", "value": "0.97 ratio to no protein"}]}, {"binder": "B9", "values": [{"measurement": "binding signal", "value": "1.02 ratio to no protein"}]}, {"binder": "B10", "values": [{"measurement": "binding signal", "value": "0.99 ratio to no protein"}]}, {"binder": "B11", "values": [{"measurement": "binding signal", "value": "0.98 ratio to no protein"}]}, {"binder": "B12", "values": [{"measurement": "binding signal", "value": "2.13 ratio to no protein"}]}, {"binder": "B13", "values": [{"measurement": "binding signal", "value": "2.87 ratio to no protein"}]}, {"binder": "B14", "values": [{"measurement": "binding signal", "value": "2.02 ratio to no protein"}]}, {"binder": "B15", "values": [{"measurement": "binding signal", "value": "3.06 ratio to no protein"}]}, {"binder": "B16", "values": [{"measurement": "binding signal", "value": "1.46 ratio to no protein"}]}, {"binder": "B17", "values": [{"measurement": "binding signal", "value": "2.21 ratio to no protein"}]}, {"binder": "B18", "values": [{"measurement": "binding signal", "value": "2.68 ratio to no protein"}]}, {"binder": "B19", "values": [{"measurement": "binding signal", "value": "1.99 ratio to no protein"}]}, {"binder": "B20", "values": [{"measurement": "binding signal", "value": "2 ratio to no protein"}]}, {"binder": "B21", "values": [{"measurement": "binding signal", "value": "2.05 ratio to no protein"}]}, {"binder": "B22", "values": [{"measurement": "binding signal", "value": "1.41 ratio to no protein"}]}, {"binder": "B23", "values": [{"measurement": "binding signal", "value": "2.64 ratio to no protein"}]}, {"binder": "B24", "values": [{"measurement": "binding signal", "value": "2.02 ratio to no protein"}]}, {"binder": "B25", "values": [{"measurement": "binding signal", "value": "1.7 ratio to no protein"}]}, {"binder": "B26", "values": [{"measurement": "binding signal", "value": "1.71 ratio to no protein"}]}, {"binder": "B27", "values": [{"measurement": "binding signal", "value": "1.95 ratio to no protein"}]}, {"binder": "B28", "values": [{"measurement": "binding signal", "value": "1.66 ratio to no protein"}]}, {"binder": "B29", "values": [{"measurement": "binding signal", "value": "2.9 ratio to no protein"}]}, {"binder": "B30", "values": [{"measurement": "binding signal", "value": "2.55 ratio to no protein"}]}, {"binder": "B31", "values": [{"measurement": "binding signal", "value": "2.12 ratio to no protein"}]}]}
